Here are results for one protein from patent publication US20170258870.

In the series the target is myc-tagged LIMP-2.

B1: wild-type β-glucocerebrosidase (GC), human, overexpressed in cells (protein)
chain: ARPCIPKSFGYSSVVCVCNATYCDSFDPPTFPALGTFSRYESTRSGRRMELSMGPIQANHTGTGLLLTLQPEQKFQKVKGFGGAMTDAAALNILALSPPAQNLLLKSYFSEEGIGYNIIRVPMASCDFSIRTYTYADTPDDFQLHNFSLPEEDTKLKIPLIHRALQLAQRPVSLLASPWTSPTWLKTNGAVNGKGSLKGQPGDIYHQTWARYFVKFLDAYAEHKLQFWAVTAENEPSAGLLSGYPFQCLGFTPEHQRDFIARDLGPTLANSTHHNVRLLMLDDQRLLLPHWAKVVLTDPEAAKYVHGIAVHWYLDFLAPAKATLGETHRLFPNTMLFASEACVGSKFWEQSVRLGSWDRGMQYSHSIITNLLYHVVGWTDWNLALNPEGGPNWVRNFVDSPIIVDITKDTFYKQPMFYHLGHFSKFIPEGSQRVGLVASQKNDLDAVALMHPDGSAVVVVLNRSSKDVPLTIKDPAVGFLETISPGYSIHTYLWRRQ
As to B1, the “GC enzymatic activity on co-expression with LIMP-2” value was “Upon co-expression of wild-type GC and LIMP-2 we observed a significant increase in GC activity”.
